B1: S9-1-10/5-1 (antibody, V domains shown)
VH: QLHLQESGPGLLKPSATLSLTCTVSGGSMNNYYWSWVRQAPGKGLEWIGYIFHSGSTNYSPPLKSRVTISIDTATNQFFLRLNSVTAADTAVYYCARMSRGVFSSSRFFGLDVWGRGTAVAVSS
VL: EIVLTQSPATLSVSPGERATLSCRASQSVASNLAWYQQKPGQAPRLLISAASTRATDIPARFSGSGSGTEFTLTISSLQSEDFAVYYCQQYNNWLSFTFGPGTKVDMKG

How the values were obtained:
[1] = biological target: HA of A/California/04/2009 (H1N1pdm09) (influenza A virus A/California/04/2009 (H1N1pdm09))
[2] = biological target: HA of Perth/16 (H3N2) virus (influenza A virus A/Perth/16/2009 (H3N2)); experiment: cell-based or functional assay
[3] = biological target: HA of A/California/04/2009 (H1N1pdm09) (influenza A virus A/California/04/2009 (H1N1pdm09)); experiment: cell-based or functional assay
[4] = biological target: recombinant HA protein of Egypt (H5N1 type) (influenza A virus, 'Egypt' (H5N1))
[5] = biological target: recombinant HA protein of A/Perth/16/2009 (H3N2) (influenza A virus A/Perth/16/2009 (H3N2))
[6] = biological target: recombinant HA protein of A/California/07/2009 (H1N1pdm09) (influenza A virus A/California/07/2009 (H1N1pdm09))
[7] = biological target: recombinant HA protein of A/Netherland/219/2003 (H7N7) (influenza A virus A/Netherland/219/2003 (H7N7))
[8] = biological target: three viruses, CA04, Egypt, and Anhui/1; experiment: cell-based or functional assay

Molecule	apparent rate constant k obs, fold over that of S9-1-10/5-1 [1] [fold]	IC 50, neutralization test 1 (Pre), CPE on MDCK cells [2] [µg/mL]	IC 50, neutralization test 1 (Pre), CPE on MDCK cells [3] [µg/mL]	Kd [4] [nM]	Kd [5] [nM]	Kd [6] [nM]	Kd [7] [nM]	IC 50, neutralization test 2 (Post), CPE on MDCK cells [8] [µg/mL]
CR9114 (antibody)	11.6	25	7.4	–	–	–	–	–
B1	–	–	–	0.14	34	0.0085	0.9	0.55 to 8.8
